Results reported in US20210139574A1.

Tests used:
Assay in all cases: cell-based or functional assay
[1] = target: Tau seeds: sonicated human insoluble Tau from patients with Alzheimer's disease (AD-PHF, fraction 8) (human) (UniProt P10636)
[2] = target: Tau seeds: brain fraction from transgenic mice expressing human Tau P301S (human) (UniProt P10636)
[3] = target: Tau seeds: sonicated human insoluble Tau from patients with progressive supranuclear palsy (PSP-PHF, fraction 8) (human) (UniProt P10636)
Tau seeds: sonicated human insoluble Tau from patients with progressive supranuclear palsy (PSP-PHF, fraction 8) (human), sequence (P10636 other isoform, or with tags, fused parts or gaps limits assumed): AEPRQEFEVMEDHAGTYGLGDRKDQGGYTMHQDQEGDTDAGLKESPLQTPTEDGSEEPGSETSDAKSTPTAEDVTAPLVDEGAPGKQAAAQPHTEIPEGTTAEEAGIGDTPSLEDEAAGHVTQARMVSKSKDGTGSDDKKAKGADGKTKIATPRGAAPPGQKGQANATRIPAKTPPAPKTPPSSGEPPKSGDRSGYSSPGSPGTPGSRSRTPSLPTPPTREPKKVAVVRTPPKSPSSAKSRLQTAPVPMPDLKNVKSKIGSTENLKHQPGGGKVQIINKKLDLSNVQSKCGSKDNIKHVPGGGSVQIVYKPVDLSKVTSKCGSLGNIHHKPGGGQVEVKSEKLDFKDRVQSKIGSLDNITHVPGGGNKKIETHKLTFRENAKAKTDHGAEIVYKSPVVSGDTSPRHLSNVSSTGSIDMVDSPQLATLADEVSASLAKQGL

[4] = target: Tau seeds: brain fraction from transgenic mice expressing human Tau P301L (human) (UniProt P10636)
Tau seeds: brain fraction from transgenic mice expressing human Tau P301L (human), sequence (P10636 other isoform, or with tags, fused parts or gaps P301L P301L limits assumed): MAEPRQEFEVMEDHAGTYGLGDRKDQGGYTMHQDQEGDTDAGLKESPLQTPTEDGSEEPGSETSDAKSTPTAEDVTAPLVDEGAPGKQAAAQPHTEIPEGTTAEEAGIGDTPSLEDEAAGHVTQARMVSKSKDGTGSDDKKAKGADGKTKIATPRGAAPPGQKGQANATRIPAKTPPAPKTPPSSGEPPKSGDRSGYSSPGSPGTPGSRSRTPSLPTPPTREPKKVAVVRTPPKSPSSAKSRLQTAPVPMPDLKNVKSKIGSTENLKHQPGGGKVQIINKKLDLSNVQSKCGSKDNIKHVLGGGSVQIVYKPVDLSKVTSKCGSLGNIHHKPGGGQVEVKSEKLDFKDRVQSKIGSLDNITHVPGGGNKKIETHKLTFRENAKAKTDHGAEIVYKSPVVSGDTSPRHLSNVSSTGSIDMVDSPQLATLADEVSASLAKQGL

[5] = target: Tau seeds: sonicated human insoluble Tau from patients with frontotemporal dementia (FTD-PHF) (human) (UniProt P10636)
Tau seeds: sonicated human insoluble Tau from patients with frontotemporal dementia (FTD-PHF) (human), sequence (P10636 other isoform, or with tags, fused parts or gaps limits assumed): as the sequence (P10636 other isoform, or with tags, fused parts or gaps limits assumed) above

HJ8.5 of WO 2014/008404 (antibody), sequence (VH): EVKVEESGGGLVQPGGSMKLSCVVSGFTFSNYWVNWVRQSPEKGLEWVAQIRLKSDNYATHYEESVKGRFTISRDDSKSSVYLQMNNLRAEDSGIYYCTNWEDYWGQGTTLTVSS
HJ8.5 of WO 2014/008404 (antibody), sequence (VL): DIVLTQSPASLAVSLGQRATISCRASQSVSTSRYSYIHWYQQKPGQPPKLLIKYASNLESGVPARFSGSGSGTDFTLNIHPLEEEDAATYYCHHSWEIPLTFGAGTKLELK
Tau seeds: sonicated human insoluble Tau from patients with Alzheimer's disease (AD-PHF, fraction 8) (human), sequence (P10636 other isoform, or with tags, fused parts or gaps limits assumed): as the sequence (P10636 other isoform, or with tags, fused parts or gaps limits assumed) above
Tau seeds: brain fraction from transgenic mice expressing human Tau P301S (human), sequence (P10636 other isoform, or with tags, fused parts or gaps P301S P301S): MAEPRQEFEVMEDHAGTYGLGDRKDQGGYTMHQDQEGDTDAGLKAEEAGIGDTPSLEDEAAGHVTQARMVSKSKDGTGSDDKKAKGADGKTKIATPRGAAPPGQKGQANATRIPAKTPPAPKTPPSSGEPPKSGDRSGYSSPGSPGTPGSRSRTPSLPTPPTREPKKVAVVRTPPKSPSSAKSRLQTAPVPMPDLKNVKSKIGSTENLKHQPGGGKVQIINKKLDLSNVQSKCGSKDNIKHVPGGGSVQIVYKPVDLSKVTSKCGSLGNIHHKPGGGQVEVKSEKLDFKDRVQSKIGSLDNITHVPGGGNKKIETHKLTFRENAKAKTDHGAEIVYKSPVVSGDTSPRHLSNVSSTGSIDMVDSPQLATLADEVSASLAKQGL
IPN002 of WO2014/028777A2 (antibody), sequence (VH): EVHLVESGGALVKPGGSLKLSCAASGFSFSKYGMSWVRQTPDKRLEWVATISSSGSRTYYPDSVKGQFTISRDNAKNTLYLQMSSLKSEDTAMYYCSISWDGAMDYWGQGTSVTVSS
IPN002 of WO2014/028777A2 (antibody), sequence (VL): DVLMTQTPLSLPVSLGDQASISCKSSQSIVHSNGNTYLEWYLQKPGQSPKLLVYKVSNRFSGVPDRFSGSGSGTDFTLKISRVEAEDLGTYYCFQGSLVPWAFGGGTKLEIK

| Imax (maximal efficacy at 300 nM), cellular Tau aggregation assay [1] | Imax (maximal efficacy at 300 nM), cellular Tau aggregation assay [2] | IC50, cellular Tau aggregation assay [3] | Imax (maximal efficacy at 300 nM), cellular Tau aggregation assay [3] | IC50, cellular Tau aggregation assay [4] | Imax (maximal efficacy at 300 nM), cellular Tau aggregation assay [4] | Imax (maximal efficacy at 300 nM), cellular Tau aggregation assay [5] | IC50, cellular Tau aggregation assay [1] | IC50, cellular Tau aggregation assay [2] | IC50, cellular Tau aggregation assay [5] | Substance |
| --- | --- | --- | --- | --- | --- | --- | --- | --- | --- | --- |
| 19% | 22% | 207 nM | 64% | 122 nM | 73% | 50% |  |  |  | IPN002 of WO2014/028777A2 (antibody) |
| 46% | 43% | 73 nM | 79% |  |  | 67% |  |  |  | HJ8.5 of WO 2014/008404 (antibody) |
| 19% |  |  | 25% |  |  | 36% |  |  |  | AT8 (MN1020) (antibody) |
| 69% | 56% | 47 nM | 55% | 26 nM | 69% | 80% | 32 nM | 350 nM | 1 nM | PT3 of WO2013/096380A2 (antibody) |
